Source: patent US20160355591A1

Assays:
[1] = target: HLA-DR (human leukocyte antigen-DR) on human lymphoma and leukemia cells and human lymphocytes (human); assay: indirect flow cytometry, WSU-FSCCL cells, FITC-GAH Fc 2nd Ab; none 2.7; negative control antibody
[2] = target: HLA-DR (L243 antigen) on canine lymphocytes and canine lymphoma cells (dog); assay: flow cytometry, canine lymphoma aspirate 150836; none 4.5; control antibody
[3] = target: HLA-DR (L243 antigen) on canine lymphocytes and canine lymphoma cells (dog); assay: flow cytometry, dog lymphoma aspirate; none 3.24; control antibody
[4] = target: HLA-DR (human leukocyte antigen-DR) on human lymphoma and leukemia cells and human lymphocytes (human); assay: indirect FACS, Daudi cells, FITC-GAH Fc 2nd Ab; none 3.1; control antibody
[5] = target: HLA-DR (human leukocyte antigen-DR) on human lymphoma and leukemia cells and human lymphocytes (human); assay: indirect flow cytometry, Namalwa cells, FITC-GAH Fc 2nd Ab; none 2.6; negative control antibody
[6] = target: HLA-DR (human leukocyte antigen-DR) on human lymphoma and leukemia cells and human lymphocytes (human); assay: indirect FACS, SU-DHL-6 cells, FITC-GAH Fc 2nd Ab; none 4.6; control antibody
[7] = target: HLA-DR (human leukocyte antigen-DR) on human lymphoma and leukemia cells and human lymphocytes (human); assay: indirect flow cytometry, Raji cells, FITC-GAH Fc 2nd Ab; none 6.9; negative control antibody
[8] = target: HLA-DR (L243 antigen) on canine lymphocytes and canine lymphoma cells (dog); assay: flow cytometry, dog lymphoma aspirate; none 4.48; control antibody
[9] = target: HLA-DR (human leukocyte antigen-DR) on human lymphoma and leukemia cells and human lymphocytes (human); assay: indirect FACS, Namalwa cells, FITC-GAH Fc 2nd Ab; none 2.5; control antibody
[10] = target: HLA-DR (human leukocyte antigen-DR) on human lymphoma and leukemia cells and human lymphocytes (human); assay: indirect flow cytometry, Daudi cells, FITC-GAH Fc 2nd Ab; none 3.2; negative control antibody
[11] = target: HLA-DR (L243 antigen) on canine lymphocytes and canine lymphoma cells (dog); assay: flow cytometry, canine lymphoma aspirate 150836; none 3.2; control antibody
[12] = target: HLA-DR (human leukocyte antigen-DR) on human lymphoma and leukemia cells and human lymphocytes (human); assay: indirect flow cytometry, Namalwa cells, FITC-GAH 2nd Ab; none 2.52; control antibody (anti-CEA)
[13] = target: HLA-DR (human leukocyte antigen-DR) on human lymphoma and leukemia cells and human lymphocytes (human); assay: indirect flow cytometry, SU-DHL-6 cells, FITC-GAH Fc 2nd Ab; none 4.6; negative control antibody
[14] = target: HLA-DR (human leukocyte antigen-DR) on human lymphoma and leukemia cells and human lymphocytes (human); assay: indirect FACS, Ramos cells, FITC-GAH Fc 2nd Ab; none 3.1; control antibody
[15] = target: HLA-DR (human leukocyte antigen-DR) on human lymphoma and leukemia cells and human lymphocytes (human); assay: indirect flow cytometry, RL cells, FITC-GAH Fc 2nd Ab; none 2.4; negative control antibody
[16] = target: HLA-DR (human leukocyte antigen-DR) on human lymphoma and leukemia cells and human lymphocytes (human); assay: indirect FACS, WSU-FSCCL cells, FITC-GAH Fc 2nd Ab; none 2.6; control antibody
[17] = target: HLA-DR (human leukocyte antigen-DR) on human lymphoma and leukemia cells and human lymphocytes (human); assay: indirect flow cytometry, Ramos cells, FITC-GAH Fc 2nd Ab; none 3.1; negative control antibody
[18] = target: HLA-DR (human leukocyte antigen-DR) on human lymphoma and leukemia cells and human lymphocytes (human); assay: indirect FACS, Raji cells, FITC-GAH Fc 2nd Ab; none 6.8; control antibody

B1: hMN-14 (labetuzumab, humanized anti-carcinoembryonic antigen IgG1) (antibody, INN chains, looked up, V domains shown)
VH: EVQLVESGGGVVQPGRSLRLSCSASGFDFTTYWMSWVRQAPGKGLEWIGEIHPDSSTINYAPSLKDRFTISRDNAKNTLFLQMDSLRPEDTGVYFCASLYFGFPWFAYWGQGTPVTVSS
VL: DIQLTQSPSSLSASVGDRVTITCKASQDVGTSVAWYQQKPGKAPKLLIYWTSTRHTGVPSRFSGSGSGTDFTFTISSLQPEDIATYYCQQYSLYRSFGQGTKVEIKR
- geometric mean fluorescence [1]: 2.7
- % Positive [2]: 4.6%
- mean FL [3]: 3.24
- geometric mean fluorescence [4]: 3.16
- geometric mean fluorescence [5]: 2.4
- geometric mean fluorescence [6]: 4.94
- geometric mean fluorescence [7]: 7
- % Positive [8]: 4.63%
- geometric mean fluorescence [9]: 2.36
- geometric mean fluorescence [10]: 3.2
- mean FL [11]: 3.2
- geometric mean fluorescence [12]: 2.49
- geometric mean fluorescence [13]: 4.9
- geometric mean fluorescence [14]: 3.13
- geometric mean fluorescence [15]: 2.8
- geometric mean fluorescence [16]: 2.66
- geometric mean fluorescence [17]: 3.1
- geometric mean fluorescence [18]: 6.96
